Source: patent US11833164B2, “Methods of treating Fabry disease in patients having a mutation in the GLA gene” (Amicus Therapeutics, Inc., priority 2019, dated 2023)

B1: P343A (protein)
chain: MQLRNPELHLGCALALRFLALVSWDIPGARALDNGLARTPTMGWLHWERFMCNLDCQEEPDSCISEKLFMEMAELMVSEGWKDAGYEYLCIDDCWMAPQRDSEGRLQADPQRFPHGIRQLANYVHSKGLKLGIYADVGNKTCAGFPGSFGYYDIDAQTFADWGVDLLKFDGCYCDSLENLADGYKHMSLALNRTGRSIVYSCEWPLYMWPFQKPNYTEIRQYCNHWRNFADIDDSWKSIKSILDWTSFNQERIVDVAGPGGWNDPDMLVIGNFGLSWNQQVTQMALWAIMAAPLFMSNDLRHISPQAKALLQDKDVIAINQDPLGKQGYQLRQGDNFEVWERALSGLAWAVAMINRQEIGGPRSYTIAVASLGKGVACNPACFITQLLPVKRKLGFYEWTSRLRSHINPTGTVLLQLENTMQMSLKDLL
B2: L344F (protein)
chain: MQLRNPELHLGCALALRFLALVSWDIPGARALDNGLARTPTMGWLHWERFMCNLDCQEEPDSCISEKLFMEMAELMVSEGWKDAGYEYLCIDDCWMAPQRDSEGRLQADPQRFPHGIRQLANYVHSKGLKLGIYADVGNKTCAGFPGSFGYYDIDAQTFADWGVDLLKFDGCYCDSLENLADGYKHMSLALNRTGRSIVYSCEWPLYMWPFQKPNYTEIRQYCNHWRNFADIDDSWKSIKSILDWTSFNQERIVDVAGPGGWNDPDMLVIGNFGLSWNQQVTQMALWAIMAAPLFMSNDLRHISPQAKALLQDKDVIAINQDPLGKQGYQLRQGDNFEVWERPFSGLAWAVAMINRQEIGGPRSYTIAVASLGKGVACNPACFITQLLPVKRKLGFYEWTSRLRSHINPTGTVLLQLENTMQMSLKDLL
B3: G346D (protein)
chain: MQLRNPELHLGCALALRFLALVSWDIPGARALDNGLARTPTMGWLHWERFMCNLDCQEEPDSCISEKLFMEMAELMVSEGWKDAGYEYLCIDDCWMAPQRDSEGRLQADPQRFPHGIRQLANYVHSKGLKLGIYADVGNKTCAGFPGSFGYYDIDAQTFADWGVDLLKFDGCYCDSLENLADGYKHMSLALNRTGRSIVYSCEWPLYMWPFQKPNYTEIRQYCNHWRNFADIDDSWKSIKSILDWTSFNQERIVDVAGPGGWNDPDMLVIGNFGLSWNQQVTQMALWAIMAAPLFMSNDLRHISPQAKALLQDKDVIAINQDPLGKQGYQLRQGDNFEVWERPLSDLAWAVAMINRQEIGGPRSYTIAVASLGKGVACNPACFITQLLPVKRKLGFYEWTSRLRSHINPTGTVLLQLENTMQMSLKDLL
B4: L344R (protein)
chain: MQLRNPELHLGCALALRFLALVSWDIPGARALDNGLARTPTMGWLHWERFMCNLDCQEEPDSCISEKLFMEMAELMVSEGWKDAGYEYLCIDDCWMAPQRDSEGRLQADPQRFPHGIRQLANYVHSKGLKLGIYADVGNKTCAGFPGSFGYYDIDAQTFADWGVDLLKFDGCYCDSLENLADGYKHMSLALNRTGRSIVYSCEWPLYMWPFQKPNYTEIRQYCNHWRNFADIDDSWKSIKSILDWTSFNQERIVDVAGPGGWNDPDMLVIGNFGLSWNQQVTQMALWAIMAAPLFMSNDLRHISPQAKALLQDKDVIAINQDPLGKQGYQLRQGDNFEVWERPRSGLAWAVAMINRQEIGGPRSYTIAVASLGKGVACNPACFITQLLPVKRKLGFYEWTSRLRSHINPTGTVLLQLENTMQMSLKDLL
B5: L344V (protein)
chain: MQLRNPELHLGCALALRFLALVSWDIPGARALDNGLARTPTMGWLHWERFMCNLDCQEEPDSCISEKLFMEMAELMVSEGWKDAGYEYLCIDDCWMAPQRDSEGRLQADPQRFPHGIRQLANYVHSKGLKLGIYADVGNKTCAGFPGSFGYYDIDAQTFADWGVDLLKFDGCYCDSLENLADGYKHMSLALNRTGRSIVYSCEWPLYMWPFQKPNYTEIRQYCNHWRNFADIDDSWKSIKSILDWTSFNQERIVDVAGPGGWNDPDMLVIGNFGLSWNQQVTQMALWAIMAAPLFMSNDLRHISPQAKALLQDKDVIAINQDPLGKQGYQLRQGDNFEVWERPVSGLAWAVAMINRQEIGGPRSYTIAVASLGKGVACNPACFITQLLPVKRKLGFYEWTSRLRSHINPTGTVLLQLENTMQMSLKDLL
B6: P343S (protein)
chain: MQLRNPELHLGCALALRFLALVSWDIPGARALDNGLARTPTMGWLHWERFMCNLDCQEEPDSCISEKLFMEMAELMVSEGWKDAGYEYLCIDDCWMAPQRDSEGRLQADPQRFPHGIRQLANYVHSKGLKLGIYADVGNKTCAGFPGSFGYYDIDAQTFADWGVDLLKFDGCYCDSLENLADGYKHMSLALNRTGRSIVYSCEWPLYMWPFQKPNYTEIRQYCNHWRNFADIDDSWKSIKSILDWTSFNQERIVDVAGPGGWNDPDMLVIGNFGLSWNQQVTQMALWAIMAAPLFMSNDLRHISPQAKALLQDKDVIAINQDPLGKQGYQLRQGDNFEVWERSLSGLAWAVAMINRQEIGGPRSYTIAVASLGKGVACNPACFITQLLPVKRKLGFYEWTSRLRSHINPTGTVLLQLENTMQMSLKDLL
B7: G346C (protein)
chain: MQLRNPELHLGCALALRFLALVSWDIPGARALDNGLARTPTMGWLHWERFMCNLDCQEEPDSCISEKLFMEMAELMVSEGWKDAGYEYLCIDDCWMAPQRDSEGRLQADPQRFPHGIRQLANYVHSKGLKLGIYADVGNKTCAGFPGSFGYYDIDAQTFADWGVDLLKFDGCYCDSLENLADGYKHMSLALNRTGRSIVYSCEWPLYMWPFQKPNYTEIRQYCNHWRNFADIDDSWKSIKSILDWTSFNQERIVDVAGPGGWNDPDMLVIGNFGLSWNQQVTQMALWAIMAAPLFMSNDLRHISPQAKALLQDKDVIAINQDPLGKQGYQLRQGDNFEVWERPLSCLAWAVAMINRQEIGGPRSYTIAVASLGKGVACNPACFITQLLPVKRKLGFYEWTSRLRSHINPTGTVLLQLENTMQMSLKDLL
B8: G346V (protein)
chain: MQLRNPELHLGCALALRFLALVSWDIPGARALDNGLARTPTMGWLHWERFMCNLDCQEEPDSCISEKLFMEMAELMVSEGWKDAGYEYLCIDDCWMAPQRDSEGRLQADPQRFPHGIRQLANYVHSKGLKLGIYADVGNKTCAGFPGSFGYYDIDAQTFADWGVDLLKFDGCYCDSLENLADGYKHMSLALNRTGRSIVYSCEWPLYMWPFQKPNYTEIRQYCNHWRNFADIDDSWKSIKSILDWTSFNQERIVDVAGPGGWNDPDMLVIGNFGLSWNQQVTQMALWAIMAAPLFMSNDLRHISPQAKALLQDKDVIAINQDPLGKQGYQLRQGDNFEVWERPLSVLAWAVAMINRQEIGGPRSYTIAVASLGKGVACNPACFITQLLPVKRKLGFYEWTSRLRSHINPTGTVLLQLENTMQMSLKDLL
B9: G346A (protein)
chain: MQLRNPELHLGCALALRFLALVSWDIPGARALDNGLARTPTMGWLHWERFMCNLDCQEEPDSCISEKLFMEMAELMVSEGWKDAGYEYLCIDDCWMAPQRDSEGRLQADPQRFPHGIRQLANYVHSKGLKLGIYADVGNKTCAGFPGSFGYYDIDAQTFADWGVDLLKFDGCYCDSLENLADGYKHMSLALNRTGRSIVYSCEWPLYMWPFQKPNYTEIRQYCNHWRNFADIDDSWKSIKSILDWTSFNQERIVDVAGPGGWNDPDMLVIGNFGLSWNQQVTQMALWAIMAAPLFMSNDLRHISPQAKALLQDKDVIAINQDPLGKQGYQLRQGDNFEVWERPLSALAWAVAMINRQEIGGPRSYTIAVASLGKGVACNPACFITQLLPVKRKLGFYEWTSRLRSHINPTGTVLLQLENTMQMSLKDLL

System: mutant form of α-Gal A expressed in HEK-293 cells
Test: HEK assay (GLP HEK / Migalastat Amenability Assay): α-Gal A activity in lysates of transiently transfected HEK-293 cells incubated with or without 10 μM migalastat
Type: cell-based, human
Details: for Absolute increase (% WT) / Relative increase: 10 μM migalastat versus baseline; for Baseline α-Gal A activity (% WT): absence of migalastat; for Baseline α-Gal A activity (% WT) / 10 μM migalastat α-Gal A activity (% WT): percentage of baseline wild-type α-Gal A activity; for Baseline α-Gal A activity (% WT) / Baseline α-Gal A activity / 10 μM migalastat α-Gal A activity / 10 μM migalastat α-Gal A activity (% WT): mean ± SEM; for Baseline α-Gal A activity / 10 μM migalastat α-Gal A activity: lysates of HEK-293 cells transiently transfected with the mutant form; for Baseline α-Gal A activity: incubated 5 days in absence of migalastat; for 10 μM migalastat α-Gal A activity: incubated 5 days with 10 μM migalastat; for 10 μM migalastat α-Gal A activity (% WT): with 10 μM migalastat, 5 days
Procedure, shortened: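 HEK-293 cells transiently transfected with mutant α-Gal A and incubated with or without 10 μM migalastat; lysate activity given as nmol free 4-MU released per mg protein per hour. Values are mean±SEM.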

Row | Molecule | Absolute increase (% WT) | Relative increase | Baseline α-Gal A activity (% WT) | Baseline α-Gal A activity [nmol/mg/h] | 10 μM migalastat α-Gal A activity [nmol/mg/h] | 10 μM migalastat α-Gal A activity (% WT)
1 | B1 | 21.2 | 1.3 | 69.5 ± 4.9 | 25254 ± 2385 | 32890 ± 2292 | 90.7 ± 3.7
2 | B2 | 9.0 | 16.7 | 0.6 ± 0.1 | 217 ± 25 | 3629 ± 614 | 9.6 ± 1.4
3 | B3 | 35.8 | 1.5 | 67.5 ± 6.4 | 31327 ± 3822 | 46560 ± 3904 | 103.3 ± 6
4 | B4 | 15.3 | 2.3 | 10.9 ± 1.4 | 4983 ± 848 | 11592 ± 1593 | 26.2 ± 2.6
5 | B5 | 16.8 | 1.4 | 40.6 ± 3.2 | 13586 ± 1026 | 19262 ± 903 | 57.5 ± 2.5
6 | B6 | 19.0 | 1.3 | 62.1 ± 2.7 | 22132 ± 1243 | 29289 ± 2351 | 81.1 ± 4.6
7 | B7 | 9.7 | 1.3 | 39.5 ± 1.9 | 18258 ± 1054 | 22856 ± 1772 | 49.2 ± 2.9
8 | B8 | 22.7 | 1.8 | 28.8 ± 2.4 | 11683 ± 1406 | 20902 ± 2356 | 51.4 ± 3.9
9 | B9 | 22.0 | 1.4 | 58.3 ± 3.3 | 23263 ± 1479 | 31948 ± 1306 | 80.4 ± 2.8
